Common to all, as to test: SPR; biotinylated short peptides immobilised at ~25 response units on streptavidin-coated CM5 chips, BIAcore 3000; SH2 domains injected at 10 μl/min at 37°C; equilibrium binding, 1:1 Langmuir
Holding throughout (settings): both partners purified

In experiment [1] the target is T1, GADS SH2 domain, His-tagged (UniProt O75791 58-149).
T1 construct: GRB2-related adaptor downstream of Shc (GADS), SH2 domain; In the popinF vector, provided by the Oxford Protein Production Facility
T1 sequence (looked up): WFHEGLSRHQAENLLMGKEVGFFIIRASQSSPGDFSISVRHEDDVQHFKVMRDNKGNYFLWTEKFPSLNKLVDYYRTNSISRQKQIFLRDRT

Experiment [2] addresses T2, GRB2 SH2 domain, His-tagged (UniProt P62993 60-152).
T2 construct: In the popinF vector

Experiment [3] deals with T3, TSAd SH2 domain, His-tagged (UniProt Q9NP31 95-186).
T3 construct: T cell-specific adaptor protein (TSAd, SH2D2A), SH2 domain; In the popinF vector

Where no end group is shown, it is not given here. [ ]: non-standard residue; d: D form. The star is where a group is joined. Biotin = O=C1N[C@H]2[C@H](CS[C@H]2CCCCC(=O)*)N1; pY = N[C@@H](Cc1ccc(OP(=O)(O)O)cc1)C(=O)O

T2 sequence (P62993 60-152): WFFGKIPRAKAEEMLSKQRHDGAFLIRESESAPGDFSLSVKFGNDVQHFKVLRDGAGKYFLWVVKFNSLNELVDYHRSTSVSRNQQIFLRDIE
T3 sequence (Q9NP31 95-186): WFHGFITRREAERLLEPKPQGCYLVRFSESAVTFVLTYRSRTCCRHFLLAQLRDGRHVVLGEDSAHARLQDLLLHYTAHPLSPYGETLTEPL

B1: CD6 pY629 peptide (biotin-SSGEWpYQNFQP) (peptide)
peptide: Biotin-SSGEW[pY]QNFQP
notes: CD6, human, cytoplasmic region around Y629; also called phosphorylated CD6 Y629 peptide; source: synthetic peptide (Peptide Protein Research Ltd.)
In the case of B1, the Kd was in the range of 1000 to 3000 nM in experiment [1], 2000 to 4000 nM in experiment [2] and 26000 to 58000 nM in experiment [3].

B2: CD28 pYMNM peptide (biotin-LLHSDpYMNMTP) (peptide)
peptide: Biotin-LLHSD[pY]MNMTP
notes: CD28-derived peptide containing the YXN motif; also called phosphorylated CD28-derived peptide; source: synthetic peptide (Peptide Protein Research Ltd.)
Consider B2, for which the Kd is 2000 to 3000 nM in experiment [1], 3000 nM in experiment [2] and 74000 nM in experiment [3].

Broadly, the Kd is the equilibrium constant for the complex coming apart. A higher Kd goes with weaker binding.

(Values after PMC5440646, “T Cell Costimulation by CD6 Is Dependent on Bivalent Binding of a GADS/SLP-76 Complex” (Molecular and Cellular Biology, 2017).)
